Test results taken from patent publication US7351690B2, “Knockout identification of target-specific sites in peptides” (priority 2000, dated 2008).
Square brackets hold non-standard residues; d marks the D form. Ends that are not written are not given here. Nle = CCCC[C@H](N)C(=O)O

Legend:
hMC5-R = biological target: T1, hMC5-R (Homo sapiens, UniProt P33032); assay: competitive inhibition binding assay, 125I-NDP-alpha-MSH, hMC5-R membranes; conditions: for % Inhibition at 1 μM at Melanocortin Receptor 5: 1 μM test peptide, 0.4 nM 125I-NDP-alpha-MSH, hMC5-R membranes
T1 construct: expressed in transfected cells
T1 sequence (P33032 whole entry): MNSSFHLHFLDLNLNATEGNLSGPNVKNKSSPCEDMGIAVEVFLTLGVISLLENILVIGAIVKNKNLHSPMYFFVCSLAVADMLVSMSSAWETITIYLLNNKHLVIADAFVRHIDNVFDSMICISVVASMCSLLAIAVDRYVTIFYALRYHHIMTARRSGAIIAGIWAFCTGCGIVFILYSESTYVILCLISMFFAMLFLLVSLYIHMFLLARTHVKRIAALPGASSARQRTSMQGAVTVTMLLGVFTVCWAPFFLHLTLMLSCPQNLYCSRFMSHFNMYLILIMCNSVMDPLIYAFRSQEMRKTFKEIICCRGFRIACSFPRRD
Method: (§1) The competitive inhibition binding assay was conducted using membranes prepared from hMC3-R, hMC4-R, hMC5-R, and B-16 mouse melanoma cells (containing MC1-R) using 0.4 nM ^125I-NDP-alpha-MSH (New England Nuclear, Boston, Mass., USA) in 50 mM HEPES buffer containing 1 mM MgCl2, 2 mM CaCl2, and 5 mM KCl, at pH 7.2. The assay tube also contained a chosen concentration of the test peptide of this invention complexed to a rhenium metal ion, typically at a 1 μM concentration, for determining its efficacy in inhibiting the binding of ^125I-NDP-alpha-MSH to its receptor. Non-specific binding was measured by complete inhibition of binding of ^125I-NDP-alpha-MSH in the assay with the presence of 1 μM alpha-MSH. Incubation was for 90 minutes at room temperature, after which the assay mixture was filtered and the membranes washed three times with ice cold buffer. The filter was dried and counted in a gamma counter for remaining radioactivity bound to the membranes. 100% specific binding was defined as the difference in radioactivity (cpm) bound to cell membranes in the absence and presence of 1 μM alpha-MSH. The cpm obtained in presence of test compounds were normalized with respect to 100% specific binding to determine the percent inhibition of ^125I-NDP-alpha MSH binding. Each assay was conducted in triplicate and the actual mean valves are described.

hMC3-R = biological target: T2, hMC3-R (Homo sapiens, UniProt P41968); assay: competitive inhibition binding assay, 125I-NDP-alpha-MSH, hMC3-R membranes; conditions: for % Inhibition at 1 μM at Melanocortin Receptor 3: 1 μM test peptide, 0.4 nM 125I-NDP-alpha-MSH, hMC3-R membranes
T2 construct: expressed in transfected cells
T2 sequence (P41968 whole entry): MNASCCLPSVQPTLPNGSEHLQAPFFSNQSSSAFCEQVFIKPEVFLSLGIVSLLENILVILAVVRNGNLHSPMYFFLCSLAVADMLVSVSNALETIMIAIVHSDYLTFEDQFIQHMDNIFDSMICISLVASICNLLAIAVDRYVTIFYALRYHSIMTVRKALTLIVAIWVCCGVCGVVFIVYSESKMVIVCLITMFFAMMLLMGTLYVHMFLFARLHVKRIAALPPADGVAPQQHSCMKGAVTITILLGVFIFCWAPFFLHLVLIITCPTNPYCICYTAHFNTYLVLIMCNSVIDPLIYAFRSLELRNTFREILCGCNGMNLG
Method: as §1

hMC4-R = biological target: T3, hMC4-R (Homo sapiens, UniProt P32245); assay: competitive inhibition binding assay, 125I-NDP-alpha-MSH, hMC4-R membranes; conditions: for % Inhibition at 1 μM at Melanocortin Receptor 4: 1 μM test peptide, 0.4 nM 125I-NDP-alpha-MSH, hMC4-R membranes
T3 construct: expressed in transfected cells
T3 sequence (P32245 whole entry): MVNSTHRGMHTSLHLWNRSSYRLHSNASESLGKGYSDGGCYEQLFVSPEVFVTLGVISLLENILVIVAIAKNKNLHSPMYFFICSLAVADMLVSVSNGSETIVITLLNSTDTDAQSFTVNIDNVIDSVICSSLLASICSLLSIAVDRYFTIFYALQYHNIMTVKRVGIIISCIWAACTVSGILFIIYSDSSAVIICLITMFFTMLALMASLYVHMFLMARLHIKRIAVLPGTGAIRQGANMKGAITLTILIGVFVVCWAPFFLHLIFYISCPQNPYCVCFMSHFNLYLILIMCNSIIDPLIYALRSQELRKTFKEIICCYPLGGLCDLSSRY
Method: as §1

MC1-R = biological target: T4, MC1-R (Mus musculus, UniProt Q01727); assay: competitive inhibition binding assay, 125I-NDP-alpha-MSH, B-16 mouse melanoma cell membranes; conditions: for % Inhibition at 1 μM at Melanocortin Receptor 1: 1 μM test peptide, 0.4 nM 125I-NDP-alpha-MSH, B-16 mouse melanoma cell membranes
T4 construct: membranes prepared from hMC3-R, hMC4-R, hMC5-R, and B-16 mouse melanoma cells (containing MC1-R); endogenous in cells; host or cells: B-16 mouse melanoma cells (membranes)
T4 sequence (Q01727 whole entry): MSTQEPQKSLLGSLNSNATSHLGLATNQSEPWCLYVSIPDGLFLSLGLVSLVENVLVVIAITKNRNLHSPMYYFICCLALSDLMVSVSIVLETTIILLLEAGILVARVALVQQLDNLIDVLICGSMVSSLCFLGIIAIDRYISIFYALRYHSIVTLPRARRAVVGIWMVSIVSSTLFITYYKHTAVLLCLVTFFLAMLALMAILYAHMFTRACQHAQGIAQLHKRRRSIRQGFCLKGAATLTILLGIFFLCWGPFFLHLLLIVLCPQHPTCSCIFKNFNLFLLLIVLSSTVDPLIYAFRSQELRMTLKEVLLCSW
Method: as §1

| Substance | % Inhibition at 1 μM at Melanocortin Receptor 5 (hMC5-R) | % Inhibition at 1 μM at Melanocortin Receptor 3 (hMC3-R) | % Inhibition at 1 μM at Melanocortin Receptor 4 (hMC4-R) | % Inhibition at 1 μM at Melanocortin Receptor 1 (MC1-R) | binding to MC5-R, in words (hMC5-R) | binding to MC3-R, in words (hMC3-R) | binding to MC4-R, in words (hMC4-R) | binding to MC1-R, in words (MC1-R) |
| --- | --- | --- | --- | --- | --- | --- | --- | --- |
| Ac-Ser-Tyr-Ser-Nle-Glu-His-Phe-Arg-D-Cys-Trp-Gly-Lys-Pro-Val-NH2 (chain 1 Ac-SYS[Nle]EHFR; chain 2 [dC]WGKPV-NH2; not fully specified (bridges); numbers in words are those of the source; also: oxorhenium(V) N3S1 chelate (Re(V)=O)) [2-6] | 6% | 2% | 6% | 46% |  |  |  |  |
| Ac-Ser-Tyr-D-Cys-Ser-Nle-Glu-His-Phe-Arg-Trp-Gly-Lys-Pro-Val-NH2 (Ac-SY[dC]S[Nle]EHFRWGKPV-NH2; not fully specified (bridges); printed as Ac-Ser-Tyr-D-Cys-Ser-Nle-Glu-His-Phe-Arg-Trp-Gly-Lys-Pro-Val-NH2; numbers in words are those of the source; also: oxorhenium(V) N3S1 chelate (Re(V)=O)) [2-12] | 17% | 21% | 47% | 97% |  |  |  |  |
| Ac-Ser-Tyr-Ser-Nle-Glu-His-Phe-Arg-Trp-Cys-Gly-Lys-Pro-Val-NH2 (Ac-SYS[Nle]EHFRWCGKPV-NH2; not fully specified (bridges); printed as Ac-Ser-Tyr-Ser-Nle-Glu-His-Phe-Arg-Trp-Cys-Gly-Lys-Pro-Val-NH2; numbers in words are those of the source; also: oxorhenium(V) N3S1 chelate (Re(V)=O)) [1-5] | 0% | 0% | 0% | 57% |  |  |  |  |
| Ac-Ser-Tyr-Ser-Nle-Glu-His-Phe-Arg-Trp-Gly-Lys-Gly-D-Cys-Val-NH2 (Ac-SYS[Nle]EHFRWGKG[dC]V-NH2; not fully specified (bridges); printed as Ac-Ser-Tyr-Ser-Nle-Glu-His-Phe-Arg-Trp-Gly-Lys-Gly-D-Cys-Val-NH2; numbers in words are those of the source; also: oxorhenium(V) N3S1 chelate (Re(V)=O)) [2-2] | 32% | 26% | 28% | 93% |  |  |  |  |
| Ac-Ser-Tyr-Ser-Nle-Glu-His-Phe-D-Cys-Arg-Trp-Gly-Lys-Pro-Val-NH2 ({Ac-Ser-Tyr-Ser-Nle-Glu-H2N}-F[dC]RWGKPV-NH2; numbers in words are those of the source; also: oxorhenium(V) N3S1 chelate via Cys (Re(V)=O)) [2-7] | 0% | 0% | 6% | 54% |  |  |  |  |
| Ac-Ser-Tyr-Ser-Nle-Cys-Glu-His-Phe-Arg-Trp-Gly-Lys-Pro-Val-NH2 (Ac-SYS[Nle]CEHFRWGKPV-NH2; not fully specified (bridges); printed as Ac-Ser-Tyr-Ser-Nle-Cys-Glu-His-Phe-Arg-Trp-Gly-Lys-Pro-Val-NH2; numbers in words are those of the source; also: oxorhenium(V) N3S1 chelate (Re(V)=O)) [1-10] | 5% | 0% | 7% | 72% |  |  |  |  |
| Tyr-Val-Nle-Gly-His-Phe-Arg-Trp-Asp-Cys-Arg-Phe-NH2 (YV[Nle]GHFRWDCRF-NH2; numbers in words are those of the source; also: oxorhenium(V) N3S1 chelate (Re=O) with Cys) [4-3] | 65% | 18% | 23% | 44% |  |  |  |  |
| Tyr-Val-Nle-Gly-His-Phe-Arg-Trp-Asp-Arg-Cys-Phe-NH2 (YV[Nle]GHFRWDRCF-NH2; numbers in words are those of the source; also: oxorhenium(V) N3S1 chelate (Re=O) with Cys) [4-2] | 51% | 49% | 23% | 75% |  |  |  |  |
| Ac-Ser-Tyr-Ser-Nle-Glu-His-Phe-Arg-Trp-Gly-Lys-Gly-Val-Cys-NH2 (Ac-SYS[Nle]EHFRWGKGVC-NH2; not fully specified (bridges); printed as Ac-Ser-Tyr-Ser-Nle-Glu-His-Phe-Arg-Trp-Gly-Lys-Gly-Val-Cys-NH2; numbers in words are those of the source; also: oxorhenium(V) N3S1 chelate (Re(V)=O)) [1-1] | 68% | 48% | 63% | 95% |  |  |  |  |
| Tyr-Val-Cys-Nle-Gly-His-Phe-Arg-Trp-Asp-Arg-Phe-NH2 (YVC[Nle]GHFRWDRF-NH2; not fully specified (bridges); printed as Tyr-Val-Cys-Nle-Gly-His-Phe-Arg-Trp-Asp-Arg-Phe-NH2; numbers in words are those of the source; also: oxorhenium(V) N3S1 chelate (Re=O) with Cys) [4-10] | 17% | 10% | 2% | 28% |  |  |  |  |
| Tyr-Val-Nle-Gly-His-Phe-Arg-Trp-Asp-Arg-Phe-NH2 (GHFRWDRF; N-terminal Tyr-Val-Nle, C-terminal amide; printed: Gly-His-Phe-Arg-Trp-Asp-Arg-Phe-) [Parent, reference compound] |  |  |  |  | moderate affinity | high affinity | moderate affinity | high affinity |
| Ac-Ser-Tyr-Ser-Nle-Glu-His-D-Cys-Phe-Arg-Trp-Gly-Lys-Pro-Val-NH2 (CFRWGKPV; Ac-Ser-Tyr-Ser-Nle-Glu-His N-term; D-residue; amide; printed: Cys-Phe-Arg-Trp-Gly-Lys-Pro-Val-) [2-8] | 29% | 0% | 25% | 69% |  |  |  |  |
| Ac-Ser-Tyr-Ser-D-Cys-Nle-Glu-His-Phe-Arg-Trp-Gly-Lys-Pro-Val-NH2 (Ac-SYS[dC][Nle]EHFRWGKPV-NH2; not fully specified (bridges); printed as Ac-Ser-Tyr-Ser-D-Cys-Nle-Glu-His-Phe-Arg-Trp-Gly-Lys-Pro-Val-NH2; numbers in words are those of the source; also: oxorhenium(V) N3S1 chelate (Re(V)=O)) [2-11] | 0% | 5% | 37% | 95% |  |  |  |  |
